Measurements published in PMC13399220.
pKd: −log10 of the molar value.

How the values were obtained:
[1] = biological target: IN CTD mutant (RRKAK to RAAAK) (HIV-1) (UniProt P12497); experiment: BLI; IN CTD construct (5 uM, acetate buffer pH 5) amine-coupled (EDC/NHS) to carboxyl biosensors, Imp7 in solution at 1-40 000 nM; steady-state analysis; 25 °C; GatorPrime
[2] = biological target: C-terminal domain of HIV-1 integrase (HIV-1) (UniProt P12497); experiment: as above

Xenopus laevis importin 7 (natural protein)
pKd [1]: 6.52
pKd [2]: 7.75
stoichiometry N [2]: 1
